How the values were obtained:
[1] = tested on: GST-HsUFM1 / mCh-HsC53 interaction; experiment: On-bead competition of the HsUFM1-HsC53 interaction; assay type: binding, Homo sapiens; settings: 1 μM HsC53; cAIM peptide 0-100 μM; UBA5 LIR peptide or GABARAP 100 μM
Description: (§1) Glutathione‐Sepharose 4B bead slurry (Cytiva, average diameter 90 μm) was washed and diluted 10 times in HEPES buffer (25 mM HEPES pH 7.5, 150 mM NaCl, 1 mM DTT). The beads were then incubated for 30 min at 4°C (16 rpm horizontal rotation) with GST‐tagged bait proteins (2 μM of GST, GST‐FIP200 CD, GST‐ATG8A, GST‐GABARAP, GST‐AtUFM1, and GST‐HsUFM1). The beads were washed five times in 10 times the bead volume of HEPES buffer. The buffer was removed, and the beads were resuspended 1:20 in HEPES buffer. 10 μl of diluted beads was mixed with 20 μl of mCherry‐tagged binding partner at a concentration of 1.5 μM (0.5 μl bead slurry and 1 μM binding partner final concentrations) with or without competitor, as stated in the relative experiment. […]
(§2) From images acquired from a Zeiss LSM700 confocal microscope, the quantification of fluorescence was performed in ImageJ (Schindelin et al, [2012]) by drawing a line across each bead and taking the maximum gray value along the line. The maximum gray value for any given pixel represents the fluorescence intensity.
(§3) For images acquired from a Zeiss LSM800 confocal microscope, we used a custom Fiji Macro. […] In the end, the mean fluorescent intensities were exported out and used for quantification.
(§4) For each method, the fluorescence intensity was normalized against the mean of the control condition.

HsUFM1 = experiment: Isothermal titration calorimetry, HsUFM1 titrated with HsC53wt; assay type: binding, Homo sapiens; settings: 40 μM HsUFM1 in cell, 300 or 550 μM HsC53wt in syringe
Description: (§5) All experiments were carried out at 25°C in 50 mM sodium phosphate buffer pH 7.0, 100 mM NaCl, using the PEAQ‐ITC Automated (Malvern Panalytical Ltd). For protein–protein interactions, the calorimetric cell was filled with either GABARAP or HsUFM1 and titrated with either HsC53 wt, HsC53 sAIM, HsC53 cAIM, or HsUBA5 LIR. A single injection of 0.4 μl of HsC53 or AtC53 IDRs (not taken into account) was followed by 18 injections of 2 μl each. Injections were made at 150‐s intervals with a duration of 4 s and a stirring speed of 750 rpm. The reference power was set to 10 μcal/s; the feedback mode was set to high. The raw titration data were integrated with NITPIC (Keller et al, [2012]), globally fitted with SEDPHAT (Zhao et al, [2015]), and plotted with GUSSI (Brautigam, [2015]).

[2] = tested on: HsFIP200 Claw domain (CD); experiment: Microscopy-based on-bead protein-protein interaction assay, GST-FIP200 CD beads; assay type: binding, Homo sapiens; settings: 1 μM HsC53 variant, 2 independent replicates containing 2 technical replicates
Description: as §1, §2, §3, §4

GABARAP = experiment: Isothermal titration calorimetry, GABARAP titrated with HsC53 variants; assay type: binding, human; settings: ITC, 25°C, 50 mM sodium phosphate pH 7.0, 100 mM NaCl; GABARAP 40 or 70 μM in cell; global analysis of 5 titrations, hetero-association model A + B; read-out: KD, best-fit value (ITC, GABARAP)
Description: as §5

GST-ATG8A = experiment: Microscopy-based on-bead protein-protein interaction assay, GST-ATG8A beads; assay type: binding, Arabidopsis thaliana; settings: 1 μM mCherry-tagged C53 (AtC53 variants per Appendix Fig S10A); normalized fluorescence; mean average; 3 replicates
Description: as §1, §2, §3, §4

GST-GABARAP = experiment: Microscopy-based on-bead protein-protein interaction assay, GST-GABARAP beads; assay type: binding, human; settings: 1 μM mCherry-tagged C53 (HsC53 variants per Appendix Fig S10B); normalized fluorescence; mean average; 3 replicates
Description: as §1, §2, §3, §4

B1: GABARAP: human ATG8 isoform GABARAP, used at 100 µM as competitor (protein)
chain: MKFVYKEEHPFEKRRSEGEKIRKKYPDRVPVIVEKAPKARIGDLDKKKYLVPSDLTVGQFYFLIRKRIHLRAEDALFFFVNNVIPPTSATMGQLYQEHHEEDFFLYIAYSDESVYGL
modifications: left off: GST, N-terminal, kept
For B1, the “Competition of the HsC53-HsUFM1 interaction (in words)” value [1] was “able to disrupt”.

B2: HsC53^wt: recombinant Homo sapiens C53 (CDK5RAP3), wild type (protein)
chain: MEDHQHVPIDIQTSKLLDWLVDRRHCSLKWQSLVLTIREKINAAIQDMPESEEIAQLLSGSYIHYFHCLRILDLLKGTEASTKNIFGRYSSQRMKDWQEIIALYEKDNTYLVELSSLLVRNVNYEIPSLKKQIAKCQQLQQEYSRKEEECQAGAAEMREQFYHSCKQYGITGENVRGELLALVKDLPSQLAEIGAAAQQSLGEAIDVYQASVGFVCESPTEQVLPMLRFVQKRGNSTVYEWRTGTEPSVVERPHLEELPEQVAEDAIDWGDFGVEAVSEGTDSGISAEAAGIDWGIFPESDSKDPGGDGIDWGDDAVALQITVLEAGTQAPEGVARGPDALTLLEYTETRNQFLDELMELEIFLAQRAVELSEEADVLSVSQFQLAPAILQGQTKEKMVTMVSVLEDLIGKLTSLQLQHLFMILASPRYVDRVTEFLQQKLKQSQLLALKKELMVQKQQEALEEQAALEPKLDLLLEKTKELQKLIEADISKRYSGRPVNLMGTSL
modifications: left off: His6, N-terminal, state not stated
notes: recombinant Homo sapiens C53 (CDK5RAP3), wild type
In the case of B2, the “Binding to UFM1 by ITC (in words)” value (HsUFM1) is reported as “did not detect appreciable binding”.

B3: HsC53^cAIM: HsC53^(IDWG267WDGI, IDWG292WDGI, IDWG310WDGI) (protein)
chain: MEDHQHVPIDIQTSKLLDWLVDRRHCSLKWQSLVLTIREKINAAIQDMPESEEIAQLLSGSYIHYFHCLRILDLLKGTEASTKNIFGRYSSQRMKDWQEIIALYEKDNTYLVELSSLLVRNVNYEIPSLKKQIAKCQQLQQEYSRKEEECQAGAAEMREQFYHSCKQYGITGENVRGELLALVKDLPSQLAEIGAAAQQSLGEAIDVYQASVGFVCESPTEQVLPMLRFVQKRGNSTVYEWRTGTEPSVVERPHLEELPEQVAEDAWDGIDFGVEAVSEGTDSGISAEAAGWDGIIFPESDSKDPGGDGWDGIDDAVALQITVLEAGTQAPEGVARGPDALTLLEYTETRNQFLDELMELEIFLAQRAVELSEEADVLSVSQFQLAPAILQGQTKEKMVTMVSVLEDLIGKLTSLQLQHLFMILASPRYVDRVTEFLQQKLKQSQLLALKKELMVQKQQEALEEQAALEPKLDLLLEKTKELQKLIEADISKRYSGRPVNLMGTSL
With B3 the “FIP200 interaction compared with C53 wild type (in words)” value [2] was “stronger interaction”.

B4: C53^cAIM: text label without species: HsC53^cAIM with GABARAP (ITC, beads), AtC53^cAIM with GST-ATG8 (protein)
chain: MEDHQHVPIDIQTSKLLDWLVDRRHCSLKWQSLVLTIREKINAAIQDMPESEEIAQLLSGSYIHYFHCLRILDLLKGTEASTKNIFGRYSSQRMKDWQEIIALYEKDNTYLVELSSLLVRNVNYEIPSLKKQIAKCQQLQQEYSRKEEECQAGAAEMREQFYHSCKQYGITGENVRGELLALVKDLPSQLAEIGAAAQQSLGEAIDVYQASVGFVCESPTEQVLPMLRFVQKRGNSTVYEWRTGTEPSVVERPHLEELPEQVAEDAWDGIDFGVEAVSEGTDSGISAEAAGWDGIIFPESDSKDPGGDGWDGIDDAVALQITVLEAGTQAPEGVARGPDALTLLEYTETRNQFLDELMELEIFLAQRAVELSEEADVLSVSQFQLAPAILQGQTKEKMVTMVSVLEDLIGKLTSLQLQHLFMILASPRYVDRVTEFLQQKLKQSQLLALKKELMVQKQQEALEEQAALEPKLDLLLEKTKELQKLIEADISKRYSGRPVNLMGTSL
With B4 the Kd (GABARAP) was 11.2 µM, the “Recruited more efficiently to GST-ATG8 than the respective C53 wild-type protein” value (GST-ATG8A) was 22% and the “Recruited more efficiently to GST-GABARAP than the respective C53 wild-type protein” value (GST-GABARAP) was 35%.

From article PMC10183829, “Shuffled ATG8 interacting motifs form an ancestral bridge between UFMylation and autophagy” (The EMBO Journal, 2023)
